Laboratory results reported in article doi:10.1101/2023.08.19.553944.
Like-named read-outs stand apart in the source and are kept apart here.

Tests used:
Experiment in all cases: EMSA
[1] = target: T1, 5xH-PTBP1 (UniProt P26599 1-557)
[2] = target: GST-PTBP1 (UniProt P26599 1-557)
[3] = target: PTBP2 (TnT) (UniProt Q9UKA9 1-531)
[4] = target: hnRNP A1 (TnT) (UniProt P09651-2 1-320)
[5] = target: GST-PTBP2 (UniProt Q9UKA9 1-531)
[6] = target: GST-hnRNP A1 (UniProt P09651-2 1-320)
[7] = target: T1, 5xH-PTBP1; remark: listed apart in the source

T1 sequence (P26599 whole entry): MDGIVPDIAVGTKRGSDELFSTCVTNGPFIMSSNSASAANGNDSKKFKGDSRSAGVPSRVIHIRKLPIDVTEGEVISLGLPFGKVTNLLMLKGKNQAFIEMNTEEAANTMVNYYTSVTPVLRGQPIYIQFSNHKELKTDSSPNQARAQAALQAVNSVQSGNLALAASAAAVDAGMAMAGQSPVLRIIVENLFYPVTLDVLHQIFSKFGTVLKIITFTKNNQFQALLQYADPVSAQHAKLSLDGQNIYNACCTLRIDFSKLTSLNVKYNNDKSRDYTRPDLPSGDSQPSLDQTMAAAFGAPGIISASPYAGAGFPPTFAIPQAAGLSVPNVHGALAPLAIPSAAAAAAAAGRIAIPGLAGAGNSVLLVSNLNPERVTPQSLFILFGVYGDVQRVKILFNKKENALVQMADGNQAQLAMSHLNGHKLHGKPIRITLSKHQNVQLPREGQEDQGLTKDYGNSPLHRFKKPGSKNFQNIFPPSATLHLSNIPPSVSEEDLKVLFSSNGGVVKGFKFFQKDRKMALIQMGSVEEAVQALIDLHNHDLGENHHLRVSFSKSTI
GST-PTBP1, sequence (P26599 whole entry): as above
GST-PTBP2, sequence (Q9UKA9 whole entry): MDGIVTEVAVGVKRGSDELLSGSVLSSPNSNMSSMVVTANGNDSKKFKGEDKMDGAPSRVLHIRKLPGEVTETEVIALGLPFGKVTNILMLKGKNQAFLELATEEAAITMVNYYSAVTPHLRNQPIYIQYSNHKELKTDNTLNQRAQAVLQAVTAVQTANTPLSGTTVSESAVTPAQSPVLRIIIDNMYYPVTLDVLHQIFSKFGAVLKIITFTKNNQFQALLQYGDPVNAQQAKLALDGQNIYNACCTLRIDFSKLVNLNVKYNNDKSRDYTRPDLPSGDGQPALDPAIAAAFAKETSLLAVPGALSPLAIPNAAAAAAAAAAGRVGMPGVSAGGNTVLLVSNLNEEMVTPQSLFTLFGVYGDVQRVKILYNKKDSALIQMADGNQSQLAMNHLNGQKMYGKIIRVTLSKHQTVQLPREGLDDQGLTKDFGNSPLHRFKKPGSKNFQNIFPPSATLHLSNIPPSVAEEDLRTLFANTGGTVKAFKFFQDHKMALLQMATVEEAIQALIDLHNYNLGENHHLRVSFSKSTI
PTBP2 (TnT), sequence (Q9UKA9 whole entry): as above

Binder	binding result [1]	binding result [2]	binding result [3]	binding result [4]	binding result [5]	binding result [6]	binding result [7]
U7/SPL (structured_RNA) RNA: CAGUGUUACAGCUCUUUUAGAAUUUUUGGAGUAGGCUUUCUGGCUUUUUACCGGAAAGCCCCUCUUAUG	binds	binds	no binding	–	–	–	–
U7/2xMut (structured_RNA) RNA: CAGUGUUACAGGAGAUUUAGAAUUUUUGGAGUAGGCUUUCUGGCUUUUUACCGGAAAGCCCCUCUUAUG	–	–	–	binds	no binding	–	–
U7/2xGA (structured_RNA) RNA: CAGUGUUACAGCUCUUUUGAAAUUUGUCUGAUAGGCUUUCUGGCUUUUUACCGGAAAGCCCCUCUUAUG	–	–	–	no binding	–	no binding	binds
U7/PU (structured_RNA) RNA: CAGUGUUACAGGAGAUUUAGAAUUUGUCUAGUAGGCUUUCUGGCUUUUUACCGGAAAGCCCCUCUUAUG	binds	binds	–	–	–	–	–
